Laboratory results reported in US20220282217A1, “COMPOSITIONS AND METHODS FOR PREPARING T CELL COMPOSITIONS AND USES THEREOF” (priority 2019, published 2022).
Blank lines part the entries; values can stand above or below the binder they belong to.

What was measured:
Details in all cases: remark: other sources report otherwise
HLA-A02.01 (human) [1] = assay: pMHC-I dissociation half-life, 125I-b2m
HLA-A24.02 (human) [2] = assay: pMHC-I dissociation half-life, 125I-b2m
HLA-A02.01 (human) [3] = assay: competition with radiolabeled reference peptide, purified MHC I
HLA-A24.02 (human) [4] = assay: as above
HLA-A02.01 (human) [5] = assay: pMHC-I complex dissociation at 37 C, 125I-b2m, half-life
HLA-A24.02 (human) [6] = assay: as above
HLA-A02.01 (human) [7] = assay: competition vs radiolabeled reference peptide on purified MHC I, gel filtration
HLA-A24.02 (human) [8] = assay: as above
HLA-B07.02 (human) [9] = assay: pMHC-I complex dissociation at 37 C, 125I-b2m, half-life
HLA-B07.02 (human) [10] = assay: competition vs radiolabeled reference peptide on purified MHC I, gel filtration
[11] = target: HLA class I molecule A02.01; assay: pMHC-I dissociation half-life, 125I-b2m
[12] = target: HLA class I molecule B08.01; assay: pMHC-I dissociation half-life, 125I-b2m
[13] = target: HLA class I molecule A03.01; assay: pMHC-I dissociation half-life, 125I-b2m
[14] = target: HLA class I molecule A02.01; assay: competition with radiolabeled reference peptide on purified MHC I
[15] = target: HLA class I molecule A03.01; assay: as above
[16] = target: T1, HLA-A02.01 class I MHC molecule (prepared complex) (human); assay: displacement of radiolabeled reference peptide from class I MHC, gel filtration; 'Affinity (nM)'
[17] = target: T1, HLA-A02.01 class I MHC molecule …; assay: dissociation of peptide-MHC-I complex at 37 C, 125I-labelled b2m, scintillation
[18] = target: HLA-A24.02 class I MHC molecule (prepared complex) (human); assay: as above

Stability (T1/2 (h)) (HLA-A02.01 (human) [5]): 6.6 h
B5: … (peptide)
peptide: YTLDVLERC

Stability (T1/2 (h)) (HLA-A02.01 (human) [5]): 0.5 h
Stability (T1/2 (h)) (HLA-B07.02 (human) [9]): 0.2 h
IC50 (HLA-A02.01 (human) [7]): 0.125 µM
IC50 (HLA-B07.02 (human) [10]): 9.72 µM
B6: … (peptide)
peptide: RVAKIADFGM

Stability (T1/2 (h)) [11]: 10.8 h
Stability (T1/2 (h)) [12]: 0 h
B7: … (peptide)
peptide: FLLALWECSL

Stability (T1/2 (h)) [11]: 2.9 h
Stability (T1/2 (h)) [13]: 0 h
IC50 [14]: 0.102 µM
IC50 [15]: 11.2 µM
B8: … (peptide)
peptide: VMAGLGSPYV

Stability (T1/2 (h)) (HLA-A02.01 (human) [1]): 0.5 h
IC50 (HLA-A02.01 (human) [3]): 0.282 µM
B11: … (peptide)
peptide: GMNWRPILTI

Stability (T1/2 (h)) (HLA-A02.01 (human) [5]): 0 h
IC50 (HLA-A02.01 (human) [7]): 5.93 µM
B12: … (peptide)
peptide: QLIMQLMPFG

Measured stability (HLA-A02.01 (human) [1]): 0.6 h
Measured Affinity (HLA-A02.01 (human) [3]): 667 nM
B13: … (peptide)
peptide: LVVVGACGV

IC50 [14]: 0.604 µM
B14: … (peptide)
peptide: ALQPLQPHA

Stability (T1/2 (h)) (HLA-A02.01 (human) [1]): 0 h
IC50 (HLA-A02.01 (human) [3]): 9.61 µM
B16: … (peptide)
peptide: NQRPILTII

Stability (T1/2 (h)) (HLA-A02.01 (human) [1]): 0 h
Stability (T1/2 (h)) (HLA-A24.02 (human) [2]): 0 h
IC50 (HLA-A02.01 (human) [3]): 0.019 µM
IC50 (HLA-A24.02 (human) [4]): 0.052 µM
B18: … (peptide)
peptide: TQLARFFPI

Stability (T1/2 (h)) (HLA-A02.01 (human) [5]): 0.4 h
IC50 (HLA-A02.01 (human) [7]): 1.61 µM
B21: … (peptide)
peptide: IMQLMPFGC

Measured stability (HLA-A02.01 (human) [1]): 0 h
Measured Affinity (HLA-A02.01 (human) [3]): 977 nM
B23: … (peptide)
peptide: LVVVGADGV

Stability (T1/2 (h)) (HLA-A02.01 (human) [5]): 0 h
IC50 (HLA-A02.01 (human) [7]): 3.51 µM
B24: … (peptide)
peptide: LIMQLMPFG

Stability (T1/2 (h)) [11]: 0.6 h
Stability (T1/2 (h)) [12]: 0.4 h
Stability (T1/2 (h)) [13]: 0 h
IC50 [15]: 21.1 µM
B35: … (peptide)
peptide: YMFLKAESKI

Stability (T1/2 (h)) (HLA-A02.01 (human) [5]): 3 h
Stability (T1/2 (h)) (HLA-B07.02 (human) [9]): 0 h
IC50 (HLA-A02.01 (human) [7]): 0.087 µM
IC50 (HLA-B07.02 (human) [10]): 1.11 µM
B37: … (peptide)
peptide: SLLNYLREM

Stability (T1/2 (h)) (HLA-A02.01 (human) [5]): 0 h
Stability (T1/2 (h)) (HLA-A24.02 (human) [6]): 6.3 h
IC50 (HLA-A02.01 (human) [7]): 0.797 µM
IC50 (HLA-A24.02 (human) [8]): 0.444 µM
B39: … (peptide)
peptide: PLYGLLLEML

Stability (T1/2 (h)) [11]: 5.1 h
Stability (T1/2 (h)) [13]: 0 h
IC50 [14]: 0.01 µM
IC50 [15]: 10.5 µM
B41: … (peptide)
peptide: VLHECNSLYI

IC50 [14]: 0.174 µM
B42: … (peptide)
peptide: LIVSRTLLL

Stability (T1/2 (h)) (HLA-A02.01 (human) [1]): 0.3 h
Stability (T1/2 (h)) (HLA-A24.02 (human) [2]): 0 h
IC50 (HLA-A02.01 (human) [3]): 1.2 µM
IC50 (HLA-A24.02 (human) [4]): 16.3 µM
B44: … (peptide)
peptide: SMNRRPILTI

Measured stability (HLA-A02.01 (human) [1]): 0.6 h
B46: … (peptide)
peptide: LVVVGAVGV

Further lines, the binder ahead of its results:

B1: … (peptide)
peptide: MNWRPILTI
Stability (T1/2 (h)) (HLA-A02.01 (human) [1]): 3.8 h
Stability (T1/2 (h)) (HLA-A24.02 (human) [2]): 0.2 h
IC50 (HLA-A02.01 (human) [3]): 0.516 µM
IC50 (HLA-A24.02 (human) [4]): 6.98 µM

B2: … (peptide)
peptide: VQLIMQLMPF
Stability (T1/2 (h)) (HLA-A02.01 (human) [5]): 0 h
Stability (T1/2 (h)) (HLA-A24.02 (human) [6]): 0 h
IC50 (HLA-A02.01 (human) [7]): 5.49 µM
IC50 (HLA-A24.02 (human) [8]): 4.56 µM

B3: … (peptide)
peptide: FLPSTLKSL
Stability (T1/2 (h)) (HLA-A24.02 (human) [6]): 1 h
IC50 (HLA-A24.02 (human) [8]): 0.995 µM

B4: … (peptide)
peptide: SVCFFFFSV
Stability (T1/2 (h)) (HLA-A02.01 (human) [5]): 9.4 h
IC50 (HLA-A02.01 (human) [7]): 0.175 µM

B9: … (peptide)
peptide: LQSLPRFILM
Stability (T1/2 (h)) (HLA-A02.01 (human) [5]): 0 h
IC50 (HLA-A02.01 (human) [7]): 0.413 µM

B10: … (peptide)
peptide: QLIMQLMPF
Stability (T1/2 (h)) (HLA-A02.01 (human) [5]): 0.3 h
Stability (T1/2 (h)) (HLA-A24.02 (human) [6]): 0.4 h
IC50 (HLA-A02.01 (human) [7]): 0.227 µM

B15: … (peptide)
peptide: FLQEQYHEA
Stability (T1/2 (h)) [11]: 9.5 h
Stability (T1/2 (h)) [12]: 0 h

B17: … (peptide)
peptide: MANGSLLNYL
Stability (T1/2 (h)) (HLA-A02.01 (human) [5]): 0 h
Stability (T1/2 (h)) (HLA-B07.02 (human) [9]): 0 h
IC50 (HLA-A02.01 (human) [7]): 1.08 µM
IC50 (HLA-B07.02 (human) [10]): 17.7 µM

B19: EGFR_T790M peptide … (peptide)
peptide: QLIMQLMPFG
IC50 [16]: 5.21 µM
Stability (half-life (hr.)) [17]: 0 min

B20: EGFR_T790M peptide … (peptide)
peptide: STVQLIMQL
IC50 [16]: 7.26 µM
Stability (half-life (hr.)) [17]: 0 min

B22: EGFR_T790M peptide … (peptide)
peptide: IMQLMPFGC
IC50 [16]: 1.21 µM
Stability (half-life (hr.)) [17]: 22.2 min

B25: … (peptide)
peptide: WLHKRGKYI
Stability (T1/2 (h)) (HLA-A02.01 (human) [5]): 1.2 h
Stability (T1/2 (h)) (HLA-B07.02 (human) [9]): 0 h
IC50 (HLA-A02.01 (human) [7]): 1.25 µM
IC50 (HLA-B07.02 (human) [10]): 2.65 µM

B26: … (peptide)
peptide: STVQLIMQL
Stability (T1/2 (h)) (HLA-A02.01 (human) [5]): 0 h
IC50 (HLA-A02.01 (human) [7]): 8.54 µM

B27: … (peptide)
peptide: MQLMPFGCL
Stability (T1/2 (h)) (HLA-A02.01 (human) [5]): 0.4 h
Stability (T1/2 (h)) (HLA-B07.02 (human) [9]): 0 h
IC50 (HLA-B07.02 (human) [10]): 2.27 µM

B28: … (peptide)
peptide: LTINKEEAL
Stability (T1/2 (h)) (HLA-A02.01 (human) [5]): 0 h
IC50 (HLA-A02.01 (human) [7]): 4.41 µM

B29: … (peptide)
peptide: SLPRFILMEL
Stability (T1/2 (h)) (HLA-A02.01 (human) [5]): 0.5 h
Stability (T1/2 (h)) (HLA-B07.02 (human) [9]): 0.4 h
Stability (T1/2 (h)) (HLA-A24.02 (human) [6]): 0.2 h
IC50 (HLA-A02.01 (human) [7]): 0.026 µM
IC50 (HLA-B07.02 (human) [10]): 0.583 µM
IC50 (HLA-A24.02 (human) [8]): 2.77 µM

B30: … (peptide)
peptide: YMANGSLLN
Stability (T1/2 (h)) (HLA-A02.01 (human) [5]): 0 h
IC50 (HLA-A02.01 (human) [7]): 4.44 µM

B31: EGFR_T790M peptide … (peptide)
peptide: LIMQLMPFG
IC50 [16]: 3.34 µM
Stability (half-life (hr.)) [17]: 0 min

B32: … (peptide)
peptide: MALNSEALSV
Stability (T1/2 (h)) (HLA-A02.01 (human) [1]): 0.7 h
IC50 (HLA-A02.01 (human) [3]): 0.129 µM

B33: … (peptide)
peptide: MQLMPFGCLL
Stability (T1/2 (h)) (HLA-A02.01 (human) [5]): 0.4 h
Stability (T1/2 (h)) (HLA-A24.02 (human) [6]): 0 h
IC50 (HLA-A02.01 (human) [7]): 0.02 µM
IC50 (HLA-A24.02 (human) [8]): 23.6 µM

B34: … (peptide)
peptide: IMQLMPFGCL
Stability (T1/2 (h)) (HLA-A02.01 (human) [5]): 0.5 h
Stability (T1/2 (h)) (HLA-A24.02 (human) [6]): 0 h
IC50 (HLA-A02.01 (human) [7]): 0.837 µM
IC50 (HLA-A24.02 (human) [8]): 18.1 µM

B36: … (peptide)
peptide: CMGSMNRRPI
Stability (T1/2 (h)) (HLA-A02.01 (human) [1]): 0 h
IC50 (HLA-A02.01 (human) [3]): 1.99 µM

B38: … (peptide)
peptide: WMTETLFDI
Stability (T1/2 (h)) (HLA-A02.01 (human) [1]): 4 h
Stability (T1/2 (h)) (HLA-A24.02 (human) [2]): 0 h
IC50 (HLA-A02.01 (human) [3]): 0.014 µM
IC50 (HLA-A24.02 (human) [4]): 0.713 µM

B40: EGFR_T790M peptide … (peptide)
peptide: QLIMQLMPF
IC50 [16]: 0.193 µM
Stability (half-life (hr.)) [17]: 20.4 min
Stability (half-life (hr.)) [18]: 22.1 min

B43: … (peptide)
peptide: FQNGKMALSA
Stability (T1/2 (h)) [11]: 0 h
Stability (T1/2 (h)) [12]: 0 h
IC50 [14]: 6.16 µM

B45: … (peptide)
peptide: CMGGMNWRPI
Stability (T1/2 (h)) (HLA-A02.01 (human) [1]): 0.4 h
Stability (T1/2 (h)) (HLA-A24.02 (human) [2]): 0 h
IC50 (HLA-A02.01 (human) [3]): 0.346 µM
IC50 (HLA-A24.02 (human) [4]): 4.45 µM
